Data reported in US20230399374A1, “Compounds, Compositions and Methods of Use to Treat Bone Fractures” (PURDUE RESEARCH FOUNDATION, priority 2020, published 2023).
Non-standard residues stand in square brackets, D forms with d. Residues, ends and D or L forms follow the SMILES beside them. No end group written: not given here. *: point of attachment. X2 = CC1(C)C(/C=C/C2=C(Oc3ccc(CCNC(=O)CCN4C(=O)CC(*)C4=O)cc3)C(=C/C=C3/N(CCCCS(=O)(=O)O)c4ccc(S(=O)(=O)O)cc4C3(C)C)/CCC2)=[N+](CCCCS(=O)(=O)O)c2ccc(S(=O)(=O)O)cc21; Fmoc = O=C(OCC1c2ccccc2-c2ccccc21)*

Assays:
[1] = Half-life of S0456 near-IR dye conjugates at the fracture site; settings: female, ND-4 Swiss-Webster, mouse, in vivo, sc, 250 nmol/mouse
Protocol: (§1) All animal experiments were performed in accordance with protocols approved by Purdue University's Institutional Animal Care and Use Committee (IACUC).

[2] = mouse, in vivo, iv
Protocol: as §1

midshaft femur fractures = settings: mouse, in vivo
Protocol: To explore the impact of peptide branching on payload targeting, the abilities of acidic oligo-aspartic acids constructed of either two chains of 5 aspartic acids each or a single linear chain of 10 aspartic acids to deliver the CK2.3 payload to fracture surfaces were compared. […] The biodistributions were determined 18 hours post-injection into ND-4 Swiss-Webster mice (n=5) bearing midshaft femur fractures 10 days post-fracture.
The biodistributions were determined 18 hours post-injection into ND-4 Swiss-Webster mice (n=5) bearing midshaft femur fractures 10 days post-fracture.
The biodistributions were determined 18 hours post-injection (e.g., into ND-4 Swiss-Webster mice (n=5) bearing midshaft femur fractures 10 days post-fracture).
In some instances, the biodistribution is determined 18 hours post-injection (e.g., into ND-4 Swiss-Webster mice (n=5) bearing midshaft femur fractures 10 days post-fracture).
The biodistribution was determined 18 hours post-injection (e.g., into ND-4 Swiss-Webster mice (n=5) bearing midshaft femur fractures 10 days post-fracture). In some instances, the accumulation of the labeled compounds in the fractured femurs are reported as a percent of the injected dose per gram of tissue. […]

[3] = Serum calcium after 21 days of treatment (QuantiChrom Calcium Assay); format: in vivo, Swiss Webster mouse; settings: FIG. 25
Description: In some instances, using a targeted anabolic described herein (e.g., as opposed to free anabolics) is beneficial for treating bone fracture, such as, for example, because targeted anabolics hereof can limit the effects on the regulation of calcium metabolism that occurs in the kidneys for parathyroid hormones.
For quantitative determination of calcium ion (Ca^2+) and evaluation of drug effects on calcium metabolism, the QuantiChrom Calcium Assay Kit from BioAssay Systems (Hayward, CA) was used. A phenolsulfonphthalein dye in the kit specifically forms a very stable, blue-colored complex with free calcium. The intensity of the color, measured at 612 nm, is directly proportional to the calcium concentration in the sample. […] The serum was removed from the cell pellet and stored at −80° C. until calcium concentration quantification. […] After that, the samples were incubated for 3 minute at room temperature and optical density at 570-650 nm (peak absorbance at 612 nm) was read to obtain the ODSAMPLE. […] The plate was tapped to mix and optical density was measured at the same wavelength to get ODSTANDARD. […] Optical density was read at the same wavelength measurement to get ODBLANK. […]
where ODSAMPLE, ODBLANK, and ODSTANDARD are the OD readings of the Sample, Sample Blank, and the Sample plus Standard respectively; 10 is the concentration of the standard in mg/dL, and n is the sample dilution factor. […]

CC1(C)C(/C=C/C2=C(Oc3ccc(CCNC(=O)CCN4C(=O)CC(SC[C@H](NC(=O)OCC5c6ccccc6-c6ccccc65)C(=O)N[C@H](CC(=O)O)C(=O)N[C@H](CC(=O)O)C(=O)N[C@H](CC(=O)O)C(=O)N[C@H](CC(=O)O)C(=O)N[C@H](CC(=O)O)C(=O)N[C@H](CC(=O)O)C(=O)N[C@H](CC(=O)O)C(=O)N[C@H](CC(=O)O)C(=O)N[C@H](CC(=O)O)C(=O)N[C@H](CC(=O)O)C(=O)O)C4=O)cc3)C(=C/C=C3/N(CCCCS(=O)(=O)O)c4ccc(S(=O)(=O)O)cc4C3(C)C)/CCC2)=[N+](CCCCS(=O)(=O)O)c2ccc(S(=O)(=O)O)cc21 (stereo partly shown) [(D)Asp10] (Fmoc-C(X2)[dD][dD][dD][dD][dD][dD][dD][dD][dD][dD]-OH)
half-life [1]: > 100 h

N[C@@H](Cc1ccc(O)c(I)c1)C(=O)N[C@@H](CSC1CC(=O)N(CCC(=O)N[C@@H](CC(=O)O)C(=O)N[C@@H](CC(=O)O)C(=O)N[C@@H](CC(=O)O)C(=O)N[C@@H](CC(=O)O)C(=O)N[C@@H](CC(=O)O)C(=O)N[C@@H](CC(=O)O)C(=O)N[C@@H](CC(=O)O)C(=O)N[C@@H](CC(=O)O)C(=O)O)C1=O)C(=O)O (stereo partly shown) [octa-aspartic acid] (HELM PEPTIDE1{[N[C@@H](Cc1ccc(O)c(I)c1)C(=O)N[C@@H](CSC1CC(=O)N(CCC(=O)[*:2])C1=O)C(=O)O].D.D.D.D.D.D.D.D}$$$$V2.0)
selectivity ratio [2]: 11.2

RQIKIWFQNRRMKWKKIPVGESLKDLIDQC [CK2.3]
fracture targetability of payloads coupled to (L)Asp10 (in words) (midshaft femur fractures): displayed no reduction in fracture accumulation

SVSEIQLMHNLGKHLNSMERVEWLRKKLQDVHNFVALGAPLAPRDA[dE][dE][dE][dE][dE][dE][dE][dE][dE][dE] [SEQ ID NO: 13]
blood (serum) calcium [3]: did not increase the blood calcium significantly in comparison to the free form
